From patent publication US20140087995A1 (published 2014)
Values belong to the binder of their own block, whether it stands above or below them. Numbered stars: 1 amine (or outer) side, 2 acyl side, 3 side chain; on linkers, the order of the positions; unused ones are H or OH. Bridge positions count the residues as written; N and C are the ends. Side chains are listed from the residue outwards. Ends that are not written are not given here. * marks the point of attachment. C20 diacid = O=C(O)CCCCCCCCCCCCCCCCCCC(=O)*; γGlu = O=C(O)[C@H](CCC(=O)[*:2])N[*:1]; AEEA = NCCOCCOCC(=O)O

Biological target: T1, human amylin 3(a) receptor (human calcitonin receptor co-expressed with RAMP-3) (human, UniProt P30988 25-474; O60896 24-148, limits assumed)
T1 sequence (looked up) 1: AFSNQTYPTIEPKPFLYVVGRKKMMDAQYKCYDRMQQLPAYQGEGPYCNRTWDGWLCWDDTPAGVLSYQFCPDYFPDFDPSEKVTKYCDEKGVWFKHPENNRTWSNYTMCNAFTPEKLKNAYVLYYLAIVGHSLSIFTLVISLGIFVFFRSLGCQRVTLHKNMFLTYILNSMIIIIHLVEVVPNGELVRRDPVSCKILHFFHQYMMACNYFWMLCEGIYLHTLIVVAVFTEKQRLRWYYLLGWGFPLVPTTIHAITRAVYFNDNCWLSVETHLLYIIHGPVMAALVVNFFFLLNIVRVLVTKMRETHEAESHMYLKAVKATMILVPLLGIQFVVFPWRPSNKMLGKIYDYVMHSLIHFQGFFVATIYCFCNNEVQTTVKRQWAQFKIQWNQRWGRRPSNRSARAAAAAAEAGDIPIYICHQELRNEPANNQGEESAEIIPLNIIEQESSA
T1 sequence (looked up) 2: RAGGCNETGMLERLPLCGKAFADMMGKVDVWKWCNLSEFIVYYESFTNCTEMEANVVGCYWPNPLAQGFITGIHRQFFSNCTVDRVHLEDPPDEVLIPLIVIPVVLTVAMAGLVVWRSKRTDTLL
Assay: cell-based or functional assay

B2: N^ε1-[2-[2-[2-[[(4S)-4-carboxy-4-(19-carboxynonadecanoylamino)butanoyl]amino]ethoxy]ethoxy]acetyl]-[Arg14,Arg17,Pro21,Pro27]-h-amylin (peptide)
peptide: K([AEEA-γGlu-C20 diacid])CNTATCATQRLARFLRHSSPNFGAIPSSTNVGSNTY-NH2
modifications: disulfide 2-7; N-terminus assumed
SMILES: CC[C@H](C)[C@H](NC(=O)[C@H](C)NC(=O)CNC(=O)[C@H](Cc1ccccc1)NC(=O)[C@H](CC(N)=O)NC(=O)[C@@H]1CCCN1C(=O)[C@H](CO)NC(=O)[C@H](CO)NC(=O)[C@H](Cc1c[nH]cn1)NC(=O)[C@H](CCCNC(=N)N)NC(=O)[C@H](CC(C)C)NC(=O)[C@H](Cc1ccccc1)NC(=O)[C@H](CCCNC(=N)N)NC(=O)[C@H](C)NC(=O)[C@H](CC(C)C)NC(=O)[C@H](CCCNC(=N)N)NC(=O)[C@H](CCC(N)=O)NC(=O)[C@@H](NC(=O)[C@H](C)NC(=O)[C@@H]1CSSC[C@H](NC(=O)[C@@H](N)CCCCNC(=O)COCCOCCNC(=O)CC[C@H](NC(=O)CCCCCCCCCCCCCCCCCCC(=O)O)C(=O)O)C(=O)N[C@@H](CC(N)=O)C(=O)N[C@@H]([C@@H](C)O)C(=O)N[C@@H](C)C(=O)N[C@@H]([C@@H](C)O)C(=O)N1)[C@@H](C)O)C(=O)N1CCC[C@H]1C(=O)N[C@@H](CO)C(=O)N[C@@H](CO)C(=O)N[C@H](C(=O)N[C@@H](CC(N)=O)C(=O)N[C@H](C(=O)NCC(=O)N[C@@H](CO)C(=O)N[C@@H](CC(N)=O)C(=O)N[C@H](C(=O)N[C@@H](Cc1ccc(O)cc1)C(N)=O)[C@@H](C)O)C(C)C)[C@@H](C)O
notes: also called compound 82
Ratio hCT/hAmylin funct. (hCTR EC50 over hAmylin-R EC50): 59.2
hAmylin-R funct. EC50 (pM): 215 pM

B3: N^ε1-[2-[2-[2-[[(4S)-4-carboxy-4-(19-carboxynonadecanoylamino)butanoyl]amino]ethoxy]ethoxy]acetyl]-[Arg14,Arg17,Pro21,Pro27,Pro31]-h-amylin (peptide)
peptide: K([AEEA-γGlu-C20 diacid])CNTATCATQRLARFLRHSSPNFGAIPSSTPVGSNTY-NH2
modifications: disulfide 2-7; N-terminus assumed
SMILES: CC[C@H](C)[C@H](NC(=O)[C@H](C)NC(=O)CNC(=O)[C@H](Cc1ccccc1)NC(=O)[C@H](CC(N)=O)NC(=O)[C@@H]1CCCN1C(=O)[C@H](CO)NC(=O)[C@H](CO)NC(=O)[C@H](Cc1c[nH]cn1)NC(=O)[C@H](CCCNC(=N)N)NC(=O)[C@H](CC(C)C)NC(=O)[C@H](Cc1ccccc1)NC(=O)[C@H](CCCNC(=N)N)NC(=O)[C@H](C)NC(=O)[C@H](CC(C)C)NC(=O)[C@H](CCCNC(=N)N)NC(=O)[C@H](CCC(N)=O)NC(=O)[C@@H](NC(=O)[C@H](C)NC(=O)[C@@H]1CSSC[C@H](NC(=O)[C@@H](N)CCCCNC(=O)COCCOCCNC(=O)CC[C@H](NC(=O)CCCCCCCCCCCCCCCCCCC(=O)O)C(=O)O)C(=O)N[C@@H](CC(N)=O)C(=O)N[C@@H]([C@@H](C)O)C(=O)N[C@@H](C)C(=O)N[C@@H]([C@@H](C)O)C(=O)N1)[C@@H](C)O)C(=O)N1CCC[C@H]1C(=O)N[C@@H](CO)C(=O)N[C@@H](CO)C(=O)N[C@H](C(=O)N1CCC[C@H]1C(=O)N[C@H](C(=O)NCC(=O)N[C@@H](CO)C(=O)N[C@@H](CC(N)=O)C(=O)N[C@H](C(=O)N[C@@H](Cc1ccc(O)cc1)C(N)=O)[C@@H](C)O)C(C)C)[C@@H](C)O
notes: also called compound 64
Ratio hCT/hAmylin funct. (hCTR EC50 over hAmylin-R EC50): 60.7
hAmylin-R funct. EC50 (pM): 378 pM

B5: N^ε1-[2-[2-[2-[[(4S)-4-carboxy-4-(19-carboxynonadecanoylamino)butanoyl]amino]ethoxy]ethoxy]acetyl]-[Arg17,Pro21,Pro27,Arg34]-h-amylin (peptide)
peptide: K([AEEA-γGlu-C20 diacid])CNTATCATQRLANFLRHSSPNFGAIPSSTNVGRNTY-NH2
modifications: disulfide 2-7; N-terminus assumed
SMILES: CC[C@H](C)[C@H](NC(=O)[C@H](C)NC(=O)CNC(=O)[C@H](Cc1ccccc1)NC(=O)[C@H](CC(N)=O)NC(=O)[C@@H]1CCCN1C(=O)[C@H](CO)NC(=O)[C@H](CO)NC(=O)[C@H](Cc1c[nH]cn1)NC(=O)[C@H](CCCNC(=N)N)NC(=O)[C@H](CC(C)C)NC(=O)[C@H](Cc1ccccc1)NC(=O)[C@H](CC(N)=O)NC(=O)[C@H](C)NC(=O)[C@H](CC(C)C)NC(=O)[C@H](CCCNC(=N)N)NC(=O)[C@H](CCC(N)=O)NC(=O)[C@@H](NC(=O)[C@H](C)NC(=O)[C@@H]1CSSC[C@H](NC(=O)[C@@H](N)CCCCNC(=O)COCCOCCNC(=O)CC[C@H](NC(=O)CCCCCCCCCCCCCCCCCCC(=O)O)C(=O)O)C(=O)N[C@@H](CC(N)=O)C(=O)N[C@@H]([C@@H](C)O)C(=O)N[C@@H](C)C(=O)N[C@@H]([C@@H](C)O)C(=O)N1)[C@@H](C)O)C(=O)N1CCC[C@H]1C(=O)N[C@@H](CO)C(=O)N[C@@H](CO)C(=O)N[C@H](C(=O)N[C@@H](CC(N)=O)C(=O)N[C@H](C(=O)NCC(=O)N[C@@H](CCCNC(=N)N)C(=O)N[C@@H](CC(N)=O)C(=O)N[C@H](C(=O)N[C@@H](Cc1ccc(O)cc1)C(N)=O)[C@@H](C)O)C(C)C)[C@@H](C)O
notes: also called compound 78
Ratio hCT/hAmylin funct. (hCTR EC50 over hAmylin-R EC50): 25.8
hAmylin-R funct. EC50 (pM): 316 pM

Second part, the binder after the results:

Ratio hCT/hAmylin funct. (hCTR EC50 over hAmylin-R EC50): 44.9
hAmylin-R funct. EC50 (pM): 106 pM
B1: N^ε1-[2-[2-[2-[[(4S)-4-carboxy-4-(19-carboxynonadecanoylamino)butanoyl]amino]ethoxy]ethoxy]acetyl]-[Ala14,Arg17,Pro21,Pro27,Pro31]-h-amylin (peptide)
peptide: K([AEEA-γGlu-C20 diacid])CNTATCATQRLAAFLRHSSPNFGAIPSSTPVGSNTY-NH2
modifications: disulfide 2-7; N-terminus assumed
SMILES: CC[C@H](C)[C@H](NC(=O)[C@H](C)NC(=O)CNC(=O)[C@H](Cc1ccccc1)NC(=O)[C@H](CC(N)=O)NC(=O)[C@@H]1CCCN1C(=O)[C@H](CO)NC(=O)[C@H](CO)NC(=O)[C@H](Cc1c[nH]cn1)NC(=O)[C@H](CCCNC(=N)N)NC(=O)[C@H](CC(C)C)NC(=O)[C@H](Cc1ccccc1)NC(=O)[C@H](C)NC(=O)[C@H](C)NC(=O)[C@H](CC(C)C)NC(=O)[C@H](CCCNC(=N)N)NC(=O)[C@H](CCC(N)=O)NC(=O)[C@@H](NC(=O)[C@H](C)NC(=O)[C@@H]1CSSC[C@H](NC(=O)[C@@H](N)CCCCNC(=O)COCCOCCNC(=O)CC[C@H](NC(=O)CCCCCCCCCCCCCCCCCCC(=O)O)C(=O)O)C(=O)N[C@@H](CC(N)=O)C(=O)N[C@@H]([C@@H](C)O)C(=O)N[C@@H](C)C(=O)N[C@@H]([C@@H](C)O)C(=O)N1)[C@@H](C)O)C(=O)N1CCC[C@H]1C(=O)N[C@@H](CO)C(=O)N[C@@H](CO)C(=O)N[C@H](C(=O)N1CCC[C@H]1C(=O)N[C@H](C(=O)NCC(=O)N[C@@H](CO)C(=O)N[C@@H](CC(N)=O)C(=O)N[C@H](C(=O)N[C@@H](Cc1ccc(O)cc1)C(N)=O)[C@@H](C)O)C(C)C)[C@@H](C)O
notes: also called compound 72

Ratio hCT/hAmylin funct. (hCTR EC50 over hAmylin-R EC50): 29.9
hAmylin-R funct. EC50 (pM): 212 pM
B4: N^ε1-[2-[2-[2-[[(4S)-4-carboxy-4-(19-carboxynonadecanoylamino)butanoyl]amino]ethoxy]ethoxy]acetyl]-[Arg17,Pro21,Pro27,Glu35]-h-amylin (peptide)
peptide: K([AEEA-γGlu-C20 diacid])CNTATCATQRLANFLRHSSPNFGAIPSSTNVGSETY-NH2
modifications: disulfide 2-7; N-terminus assumed
SMILES: CC[C@H](C)[C@H](NC(=O)[C@H](C)NC(=O)CNC(=O)[C@H](Cc1ccccc1)NC(=O)[C@H](CC(N)=O)NC(=O)[C@@H]1CCCN1C(=O)[C@H](CO)NC(=O)[C@H](CO)NC(=O)[C@H](Cc1c[nH]cn1)NC(=O)[C@H](CCCNC(=N)N)NC(=O)[C@H](CC(C)C)NC(=O)[C@H](Cc1ccccc1)NC(=O)[C@H](CC(N)=O)NC(=O)[C@H](C)NC(=O)[C@H](CC(C)C)NC(=O)[C@H](CCCNC(=N)N)NC(=O)[C@H](CCC(N)=O)NC(=O)[C@@H](NC(=O)[C@H](C)NC(=O)[C@@H]1CSSC[C@H](NC(=O)[C@@H](N)CCCCNC(=O)COCCOCCNC(=O)CC[C@H](NC(=O)CCCCCCCCCCCCCCCCCCC(=O)O)C(=O)O)C(=O)N[C@@H](CC(N)=O)C(=O)N[C@@H]([C@@H](C)O)C(=O)N[C@@H](C)C(=O)N[C@@H]([C@@H](C)O)C(=O)N1)[C@@H](C)O)C(=O)N1CCC[C@H]1C(=O)N[C@@H](CO)C(=O)N[C@@H](CO)C(=O)N[C@H](C(=O)N[C@@H](CC(N)=O)C(=O)N[C@H](C(=O)NCC(=O)N[C@@H](CO)C(=O)N[C@@H](CCC(=O)O)C(=O)N[C@H](C(=O)N[C@@H](Cc1ccc(O)cc1)C(N)=O)[C@@H](C)O)C(C)C)[C@@H](C)O
notes: also called compound 26
